The data set concerns the molecule itself. In words: cryo-EM structure.

B1: PilA5 (TT_C1836), pilin of Thermus thermophilus HB27 (subunit of the narrow type IV pilus) (natural protein, T. thermophilus HB27, UniProt Q72GL2 6-116, looked up)
chain: FTLIELAIVIVIIGILVAIAVPRFVDLTDQANQANVDATAAAVRSAYAIATVQAKGIPTCDQVFANPEGGSTSGSTWTSSDNSTTVSCNASADTFTISRGGKTRTLNLTVN
modifications: extra density at Ser73, suggested to be O-linked glycosylation; disulphide bond Cys60-Cys88
Take B1: the binding result is given as “binds”.

B2: PilA4, major pilin of Thermus thermophilus HB27 (subunit of the wide type IV pilus) (natural protein, T. thermophilus HB27, UniProt Q72JC0 7-131, looked up)
chain: FTLIELLIVIAIIAILAAVLIPNLLAARKRANDTVVTAYLNDAVKFQEMYQIDNNSYTSNQAALISLGLKSTPANVTFSIVSASANSYCMIAGHSGGTVWFAATPDKGVYKTNTAVTSSQPESCP
modifications: extra densities at Ser59, Ser66 and Ser71, suggested to be O-linked glycosylation; disulphide bond Cys89-Cys124
With B2, the binding result was “binds”.

(Values after paper doi:10.1101/720938 (bioRxiv, 2019).)
